Laboratory results taken from publication PMC8303780, “Mutational Analysis of Redβ Single Strand Annealing Protein: Roles of the 14 Lysine Residues in DNA Binding and Recombination In Vivo”.
Positions count from the first letter of the chain named.

Assays:
Experiment in all cases: EMSA; strands added sequentially; Anisotropy: 50 mM Tris-HCl pH 7.5, 1 mM DTT, 0.1 mg/mL BSA, 10 nM FAM48, 23 °C (Kd per monomer); gel assay: 10 µM Redβ, 50 µM nt of each oligo, PBS, 37 °C, 1% agarose at 22 °C
Settings in all cases: protein: recombinant; tags: 6xHis removed by thrombin; residual N-terminal GSH; label: 5'-Cy3 and 5'-Cy5; complementary 50-mers; annealed by protein
Redβ K214A = molecular target: T1, Redβ K214A (bacteriophage λ, UniProt P03698 1-261, K214A)
T1 sequence: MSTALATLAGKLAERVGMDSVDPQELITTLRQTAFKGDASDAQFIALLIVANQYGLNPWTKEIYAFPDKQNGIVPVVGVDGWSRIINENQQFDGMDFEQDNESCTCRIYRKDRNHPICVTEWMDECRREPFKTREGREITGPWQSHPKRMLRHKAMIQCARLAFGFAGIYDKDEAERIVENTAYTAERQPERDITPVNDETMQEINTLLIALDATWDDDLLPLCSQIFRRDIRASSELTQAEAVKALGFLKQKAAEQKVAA

Redβ K36A = molecular target: T2, Redβ K36A (bacteriophage λ, UniProt P03698 1-261, K36A)
T2 sequence: T1 sequence with K36A, A214K

Redβ K245A = molecular target: T3, Redβ K245A (bacteriophage λ, UniProt P03698 1-261, K245A)
T3 sequence: T1 sequence with A214K, K245A

Redβ K61A = molecular target: T4, Redβ K61A (bacteriophage λ, UniProt P03698 1-261, K61A)
T4 sequence: T1 sequence with K61A, A214K

Redβ K251A = molecular target: T5, Redβ K251A (bacteriophage λ, UniProt P03698 1-261, K251A)
T5 sequence: T1 sequence with A214K, K251A

Redβ K111A = molecular target: T6, Redβ K111A (bacteriophage λ, UniProt P03698 1-261, K111A)
T6 sequence: T1 sequence with K111A, A214K

B1: annealed duplex of Cy3 and Cy5 50-mers, strands added sequentially (dsDNA)
DNA 1: GCGGATGGCTTAGAGCAGAATCGCCCTGCATAGCTCGATTTTTGCGGATG
DNA 2: CCATCCGCAAAAATCGAGCTATGCAGGGCGATTCTGCTCTAAGCCATCCG
Which results are given for B1?
binding result (Redβ K214A): binds; binding result (Redβ K36A): binds; binding result (Redβ K245A): binds; binding result (Redβ K61A): no binding; binding result (Redβ K251A): binds; binding result (Redβ K111A): no binding
